From article PMC11649247

Target: Mycobacterium tuberculosis polyketide synthase 13 (Mt-Pks13) (Mycobacterium tuberculosis) (UniProt I6X8D2)
Assay: AUC; sedimentation velocity at pH 6 (of a series from pH 6 to 8); triple buffer (20 mM each sodium acetate, Tris/HCl, CHES), 150 mM NaCl, 2.5 mM βME; 30 000 r.p.m.; 4 °C or 20 °C; dimer to monomers

## Mycobacterium tuberculosis polyketide synthase 13 (Mt-Pks13) (from UniProt I6X8D2 1-1733) (enzyme)
  stoichiometry N: 2
